Read-outs that look alike come from different tables or passages of the source.

Data set [1] deals with T1, HSV-1 DNA polymerase catalytic subunit UL30 (exonuclease proficient) (Herpes simplex virus 1, UniProt P04293 1-1235). Description: competition.
In data set [2] the target is T1, HSV-1 DNA polymerase catalytic subunit …. Description: competition. The source holds these as a separate data set.

T1 sequence (P04293 whole entry): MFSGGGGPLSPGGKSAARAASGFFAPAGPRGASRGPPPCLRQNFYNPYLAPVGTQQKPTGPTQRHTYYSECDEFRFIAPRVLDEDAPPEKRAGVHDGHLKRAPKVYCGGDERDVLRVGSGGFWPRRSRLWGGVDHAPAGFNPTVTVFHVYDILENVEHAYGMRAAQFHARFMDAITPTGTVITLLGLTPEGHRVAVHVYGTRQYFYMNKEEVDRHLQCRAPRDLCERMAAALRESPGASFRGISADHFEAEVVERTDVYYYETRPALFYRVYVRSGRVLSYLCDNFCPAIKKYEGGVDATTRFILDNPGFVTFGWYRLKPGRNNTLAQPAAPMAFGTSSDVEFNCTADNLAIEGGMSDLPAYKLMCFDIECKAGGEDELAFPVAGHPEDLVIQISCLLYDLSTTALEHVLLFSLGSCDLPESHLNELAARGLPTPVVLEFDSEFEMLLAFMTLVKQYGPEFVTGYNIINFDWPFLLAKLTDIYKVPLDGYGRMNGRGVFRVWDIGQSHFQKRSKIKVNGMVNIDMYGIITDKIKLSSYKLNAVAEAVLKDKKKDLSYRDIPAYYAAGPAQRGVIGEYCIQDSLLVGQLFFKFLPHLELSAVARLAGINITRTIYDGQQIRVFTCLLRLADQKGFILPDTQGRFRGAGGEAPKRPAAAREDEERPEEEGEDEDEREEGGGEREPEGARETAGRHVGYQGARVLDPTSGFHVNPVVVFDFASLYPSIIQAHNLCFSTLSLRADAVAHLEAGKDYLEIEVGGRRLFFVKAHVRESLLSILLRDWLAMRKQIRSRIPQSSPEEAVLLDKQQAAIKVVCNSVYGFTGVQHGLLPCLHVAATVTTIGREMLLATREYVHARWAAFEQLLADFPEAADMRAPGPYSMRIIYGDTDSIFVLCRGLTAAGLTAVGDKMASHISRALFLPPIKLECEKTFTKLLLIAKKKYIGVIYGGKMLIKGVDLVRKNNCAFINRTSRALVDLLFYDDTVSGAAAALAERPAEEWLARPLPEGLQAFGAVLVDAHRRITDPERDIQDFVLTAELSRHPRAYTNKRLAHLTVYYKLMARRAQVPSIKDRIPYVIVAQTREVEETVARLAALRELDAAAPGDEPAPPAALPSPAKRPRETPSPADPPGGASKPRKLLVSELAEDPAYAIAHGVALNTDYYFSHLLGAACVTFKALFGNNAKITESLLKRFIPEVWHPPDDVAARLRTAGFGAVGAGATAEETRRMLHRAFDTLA

B1: DNA16ACV (dsDNA)
DNA 1: GCTCTGTTCCGGTTTG
DNA 2: CATGATTAGATGAAACACAAACCGGAACAGAGC
modifications: acyclovir monophosphate (acyclic G) at 3' end of primer, position 16 (printed A*)
Turning to B1, in data set [1], the binding result was “binds”.

B2: DNA16GCV (dsDNA)
DNA 1: GCTCTGTTCCGGTTTG
DNA 2: CATGATTAGATGAAACACAAACCGGAACAGAGC
modifications: ganciclovir monophosphate (acyclic G) at 3' end of primer, position 16 (printed G*)
Take B2: the binding result in data set [1] is “binds”.

B3: DNA16dd (dsDNA)
DNA 1: GCTCTGTTCCGGTTTG
DNA 2: CATGATTAGATGAAACACAAACCGGAACAGAGC
modifications: 2',3'-dideoxyG at 3' end of primer, position 16 (printed D*)
For the molecule B3, the binding result in data set [1] is listed as “binds”.
Regarding GCTCTGTTCCGGTTTG (ssDNA, 2',3'-dideoxyG at 3' end, position 16 (printed D*)) [DNA16ddss], the binding result in data set [2] is recorded as “binds”.
Same read-out and setting: as for GCTCTGTTCCGGTTTG (ssDNA, acyclovir monophosphate (acyclic G) at 3' end, position 16 (printed A*)) [DNA16ACVss], the entry is “binds”.
